± gives the uncertainty stated by the source.
Assay: protein stability index of a GFP-peptide fusion (yeast GPS) (PSI 1-4); higher = more stable; sorted into four equal gates, so the index is relative within each strain
How it was run: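 The protein stability index of a peptide was calculated by multiplying its read frequency in each gate by that gate's number and adding the products. The peptides were tiled 17-residue stretches of yeast proteins, fused downstream of GFP on a Cherry-expressing plasmid and carried in yeast as a pooled library. Mid-log cultures in leucine-free medium were sorted into four equal gates by GFP/Cherry ratio, and each gate's plasmids were PCR-amplified and Illumina-sequenced.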

Sequence	protein stability index (doa10∆)	protein stability index (pdr5∆)	protein stability index (san1∆)	protein stability index (ubr1∆)
HYGLAVDIYTHFTSPIR [DIS3]	1.56 ± 0.042	1.86 ± 0.052	1.61 ± 0.064	1.84 ± 0.039
NPNPSSQRAQVVTMSVK [RPC37]	2.3 ± 0.067	2.83 ± 0.071	2.1 ± 0.068	2.42 ± 0.075
PADSTYGAYNTQIANAG [PRE4]	1.8 ± 0.097	2.03 ± 0.067	2.08 ± 0.15	1.69 ± 0.049
YNGFIDIFSNLSSDDLL [YCS4]	3.16 ± 0.044	2.99 ± 0.066	3.28 ± 0.056	3.08 ± 0.037
GGKAGSAAKASQSRSAK [HTA1]	3.17 ± 0.072	3.14 ± 0.071	2.84 ± 0.069	3.19 ± 0.048
EGTSISVHLIECYKQLF [YCS4]	3.46 ± 0.14	3.39 ± 0.12	3.42 ± 0.14	3.3 ± 0.063
LPYAIAGSGSTFIYGYC [PRE3]	2.13 ± 0.14	1.42 ± 0.084	2.26 ± 0.12	2.29 ± 0.085
EHIIRDVHNGYILRYLH [COB]	2.35 ± 0.23	1.7 ± 0.13	1.39 ± 0.16	2 ± 0.11
EIAGLSPYERRLIDLIR [RPL36A]	2.31 ± 0.088	2.37 ± 0.077	2.02 ± 0.14	2.29 ± 0.071
DDIFIPQNMLFEGCYYT [RPC25]	2.51 ± 0.17	2.89 ± 0.23	2.43 ± 0.12	2.76 ± 0.12
DLPDTEGLELLGWIHTQ [PRP8]	2.75 ± 0.093	2.79 ± 0.085	3.22 ± 0.051	3.27 ± 0.045
VESVCQKLDILVAKLKK [SMC4]	1.9 ± 0.093	2.19 ± 0.051	2.24 ± 0.087	2.12 ± 0.048
PKDKAIKRMAIRNIVEA [RPS26A]	1.25 ± 0.068	1.63 ± 0.096	1.9 ± 0.15	1.95 ± 0.054
SLDRVAWRTLVGVSHTN [CYT1]	1.3 ± 0.053	1.31 ± 0.048	1.34 ± 0.11	1.25 ± 0.043
FNPQDTEENIKGETNSE [RRP45]	3.36 ± 0.26	3.19 ± 0.14	3.22 ± 0.19	3.12 ± 0.18
SNTEPIPRSNRHGSVVE [MED1]	2.23 ± 0.17	3.22 ± 0.23	2.72 ± 0.17	
FQFKLLQSNSKLASTLE [SMC4]	2.29 ± 0.056	2.37 ± 0.042	2.42 ± 0.055	2.58 ± 0.038
EPTYRLVRYGLAEKVEK [RPS24A]	3.48 ± 0.19	3.42 ± 0.2		3.12 ± 0.19
SVQLPDMAKLKKMMNTS [SWI3]	2.14 ± 0.082	1.82 ± 0.092	1.91 ± 0.11	1.94 ± 0.082
IPSKNTPDASKPSFSFG [YLR335W/NUP2]	2.51 ± 0.15	3.14 ± 0.23	2.44 ± 0.2	2.78 ± 0.085
